Measured values published in article doi:10.1101/2020.09.10.291138.

Molecular target: human IgM-Fc (heavy chain constant domains Cμ2, Cμ3, Cμ4 and the tailpiece) (human)
Test: cryo-EM structure

stoichiometry N: 5
Substance: human IgM-Fc (heavy chain constant domains Cμ2, Cμ3, Cμ4 and the tailpiece) (domain or fragment)
